According to the DeepSol protein solubility set:

test: soluble on expression in E. coli; label from the status in PepcDB or PDB records

| Sequence | soluble on expression in E. coli |
| --- | --- |
| MSLANKILTEKDTDQIRFSILASGSSGNATLVETGDQKILIDCGLSGKKMEGLFAQVGRDMNDLDAILITHEHSDHIKGLGVLARKYKLPIYANAKTWKAMDNMIGEVSSDQKFQFDMETVKTFGSMQVESFGVSHDAIEPMFYIFHKGNKKFVMITDTGYVSDRMKGHIAGADAYLFESNHDVEMLRMGRYPWNVKRRILGDEGHVSNEDAAIAMSEVITDQTKRIYLGHLSKDNNMKELARMSVTQTLMAEGIDVGGKLEIFDTDPDNATSIFTEGHHHHHH | not soluble |
| MKFLRIEDEVIYSKKRYKLKREIDKLFLDEEYFQIEPQLFEEYDEFTTINNKIPEESMVKVVNGKVMVLRADITTSIIKSLVPRWEDGLKLKLFYNSSIYKNKNTVGIKEIRQIGCEYLGEASVEADREVVKLALKILEKYNNNFILEVGSSKYIHGLLEELNLNKNCENQIKNLLYTKNTHELKVYIEELKIKHEVKELLSNILSLQGNLYNVIEKSNKFYCNNKMKQALEELKQVNNLIEECNFLDKARFDLSMITMLDYYEGIMFRGYYPNSYKEILSGGRYDSLTKEYGKEIPAIGFTLSVDELMKYVYK | soluble |
| MSGWNVNASSFVPNANARPFVPGQPYTPQPEQAAPEPTEDWEAQADTSPAAVQPEVAEPVAVQESAPVAPVSATEAPKKEPTPEEDLVAPLAKKFQRTVYVDDGTHKEHINMVFVGHVDAGKSTIGGQLMFLTGMVDKRTLEKYEREAKEKGRESWYLSWCMDTNDEEREKGKTVEVGRAYFETEKRHFTILDAPGHKSFVPNMIVGANQADLAVLVISARRGEFETGFDRGGQTREHSMLVKTAGVKHLVILVNKMDDPTVKWEEERFKEIEGKLTPFLRKLGFNPKTDITYVPCSGLTGAFIKDRPTGSEGNWYSGPCFIEFIDVLLPSYKRDFNGPVRCTVAEKYSEMGTVIIGKMESGCVQKGDTLVVMPNKQPVQVLQIWADDVETERVVAGDNIKFKLKGIEENELQGGFIICSPDSLAKTGRVFDAEVLVLEHRSIIASGYSCVLHIQSAVEEVTVKGVIATIDKKTGEKKRAKFVKQDEKCIMRLESPEPFVLEPFKEYPYLGRFTLRDEGKTIAIGKVLKVVE | not soluble |
| KKDDFRNEFDHLLIEQANHAIEKGEHQLLYLQHQLDELNENKSKELQEKIIRELDVVCAMIEGAQGALERELKRTDLNILERFNYEEAQTLSKILLKDLKETEQKVKDIQTQ | soluble |
| MSELHYLYGKPTGTADLRTVNSDFIVKEILPFSPSGEGEHHLVHIRKDGLNTVQVAEMLAKFAKVHPKEVTYAGQKDKNAITEQWFGIRIPGKETPAWIELNSDRLTVLSSSRHSKKLRIGALLGNRFILTLRNVTNVEDIISRIEKVSQIGVPNYFGEQRFGHDGKNLVLGRQMLAGKKVKDRNKRSMYLSAVRSHLFNTVVSYRLTHYGTRPLAGDCVMLAGSKSFFVTPEWDLVVLKRLIEKDIQLSAPLWGRGKMLPQGEAAEVETQAMADLTEDCYGLEHAGLEQERRPLLLEPQGLKHEQTSDGLVLEFILPAGCFATSLLRELVDYQDVKELQWQTTLTAETNVVTESNTAAANVSDNGESASLEHHHHHH | soluble |
| VTEEEIHAMLEEGSVAGIIEQQEHEMVRNVFRLDDRQLGSLMVPRADIIYLDTALPLEENMKRVVESEHSRFPVCHNGLQSLLGVVNAKQLLAQTIKGGVTNLAEHLQPCVYVPETLTGMELLDHFRTSGTQMVFVVDEYGEIQGLVTLQDMLEAVTGEFA | not soluble |
| MKKNTSKTTMRINKQDALCTPHSHDPRDLQNMLDGGEYAPFVSPPMLESNFIQVNRRGESIYLHNRANWVTVGICFSSSTHKIPNVMLLAHLTPGAQKDTETLFKSLLTSPPAEKLVLTRFLPLQFVTLSVHDAENMSLKVKLVSGRAYYLQLCTSAYKQDTLFSQWVALISLLNQEKAKVSKVSEVSSLSGITNSTDITGSMDVTDVTTFTAILTPYMYAGTGPEHVRDSIDFPEFTDITDITDVTDLPENEVPEVPDVRIVTEVIEVREATEVTDSSDITNCSGVTVVFENNDLIRAKQEEKEKLKNILKPGCLQDTKSKRYFQTTLTPVESEANTSKEMKDKTSEEKMPDFQSTALKAEESRSLRTESNTSVLSPHIKSPSNFLKLVPHLSAPFSRE | soluble |
| SEDNITVRFVTENDKEGWQRLWKSYQDFYEVSFPDDLDDFNFGRFLDPNIKMWAAVAVESSSEKIIGMINFFNHMTTWDFKDKIYINDLYVDENSRVKGAGGKLIQFVYDEADKLGTPSVYWCTDESNHRAQLLYVKVGYKAPKILYKRKGY | soluble |
| METETYTNSSHLGRKIERIRRLRGMTQTDLGELLGVTKQAISKMEQAEKIDDEKLKQVATALGVTEEGLKKFTEETVLYYTSNFYENCHVSASNIGPITHVENLNHFSMDQAVKLFEELLKIERDKYDKGKEESAK | not soluble |
| MSLFFSLPYRFNVLSVVIASIPTLAFPTTFSDSTFFHKDWEIVCDNTLTCRAAGYSPEEKGMGEDTGTQDVSLLITRHAGQNTPITAEVTLAEVDKEIPKGTRLTLAIDGVDKGVLTSTEDNLWQLNETQIPAVLQALKGRGKVAFLHDGMVSELSGAGAYAVLLKMDERQGRIGTTDAITKKGNKSSELSAVAAPVIYAAATSQEPSRNLTNAEQAAIQKKLLKTLKEDDCYDFPPQEERVAEPMMITPLNGSMSLLSTLCWRAAYNEGYAYWVIDNAMQTQPQLMTTIGVGYENGEITAVQKGRGLADCMSDSAWVWDGKTFQQSRASITGSCRMIRLGGTWDLPYWTATVIRPGKEGHHHHHH | soluble |
| MGSSHHHHHHSSGLVPRGSHMKGDKRRDIRDILLHDETLFRNMNAFDPDYVPENYRYRESQMEALAVCIRPALRNGRPVNAVILGSCATGKTTAIKKIFEMVESTSEGVVCCYINCQLHTTRFGIFSQIYSKIFGHQPPETGVPFSRIYQTIMQHLASEKRALVVALDDINHLFYSKNANKVLYDILRAHEVFEGVRTGVFAVLSDIEFRYALDKNVDSIFIPQEIVFPPYTREEVFNILRDRVRVGFYPGVISDELLERITDHTMDTGDLRYGIDLLRVCGNLAEADASPVIGEEHLERALKSTGPVNLIHTVRTLNENEREFLRILADAGEDMTAGALYELFRESTGSSYSSFNRIIEKLEFLRLIDTRLTGKGVRGNSRILIPRFSREDLRRCPGF | soluble |
| MSLQYFKVRDEIRSMVSDSVDEIVDGVSKTTAEVINGRKSIAQYATSLIENNPEPDNVRTIISQPLIKNTFLLVGFGLEKDGSNINNDPSWNPGPTWDPRVRPWYKDAKNAGKLVITAPYADSASGEILVSVATPVKDSATGQFLGSIFYDVSLAELAELVNEVKLFDAGYVFIVSEDGTTIAHPKKEFNGKPMSEFLGESKINVDTHQVIINGKPYAVSFSDVEGEDWYVGVVIDEEIAYAALDELRRSEGHHHHHH | soluble |
| MGSDKIHHHHHHMRIILASSSPRRRQLMELLGIEFEVEKPDVEEEFLESPEETVRELSLRKAEWVFKKRKEEEILVIGSDTVVVLDGNILGKPESLEEAKGMLKKLSGKWHVVYTGVAFVSSETKDVIVSSTKVRFRELPESVIDYYVEKYRPLDKAGAYGIQDFAAVFVEKIEGDFFTVVGFPLGMVWQYLYEKGWWKVASKREDDKGGARVAFG | not soluble |
| MSAVPFPLLRLPNSALQKSLKEMRLVEQLSLSLLSENTMQLVRRFNRGRYFATITVVDSICVHLWTARCGQLFFKIKPDQSIRAVNILKSDSIATKFTMPKIPGFTVKKWLEHISHVFFSDTGATLRWMSSVRNIEETCEILKEVKIARLAINPSTVQDCQMRRLLPAIKELIVSDSTVHGSIVHWNLEKLSVFSTTMTLDDLLLSNCSDIAIGRNSLSHKNRNIFMRQWINGSNPRLQYFAMLMGFNGVQQLENTLFENIKYTETTVQGASTYKEFEIEGRDGRTAKIKLNTELTSRYFAMNVIF | not soluble |
| MYDKILKMLTDTIKQFSDAPIYLDNVMQSSEPFYFVLSVEESMTDNVGQNVQNKAYNVDIALVDSKKDKQLVKSLTESCGAFFNVLNLDGNELFPEDYQTFKTDGIQHINFNVAFPQLIEWSEK | not soluble |
| MSLKKAKLIFKDNTPFSLDFDDFYFNSKDGLNESKFVYTHSFEWKNQENFIIAESGFGIGLNFFLTLKRLLETTPSKRPKKLFYISVEAFYIEKEQLREIYQKLEFYEEFKELLEQFLKFYPKAKEGIYRFYFEDCFLDLVFEDIAVLKELDFKADVWYLDGFSPNKNLQMFDENLIFEVARLSKKNTQICTFSSASFLQKNLKKYGFRVEKTKGFRKREMIKAYLENELEFKDKEAYFSRTEGHHHHHH | soluble |
